One block for each binder: values may come before it.
Key:
Assay in all cases: two-hybrid library CCNG1;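 further: natural log of median RNA to DNA barcode read ratio; higher means stronger binding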
4H730-bA = biological target: T1, 4H730-bA
T1 chain: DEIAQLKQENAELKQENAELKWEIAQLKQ

4H949-bA = biological target: T2, 4H949-bA
T2 chain: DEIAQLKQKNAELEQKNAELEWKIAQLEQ

4H56-bA = biological target: T3, 4H56-bA
T3 chain: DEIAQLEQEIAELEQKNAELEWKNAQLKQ

4H3364-bA = biological target: T4, 4H3364-bA
T4 chain: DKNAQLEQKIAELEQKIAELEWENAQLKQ

4H2760-bA = biological target: T5, 4H2760-bA
T5 chain: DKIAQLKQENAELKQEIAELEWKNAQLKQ

4H2518-bA = biological target: T6, 4H2518-bA
T6 chain: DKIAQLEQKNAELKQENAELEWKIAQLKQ

4H2444-bA = biological target: T7, 4H2444-bA
T7 chain: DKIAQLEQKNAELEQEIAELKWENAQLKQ

4H796-bA = biological target: T8, 4H796-bA
T8 chain: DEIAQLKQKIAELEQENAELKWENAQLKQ

4H3297-bA = biological target: T9, 4H3297-bA
T9 chain: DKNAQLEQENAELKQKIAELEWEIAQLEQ

4H3041-bA = biological target: T10, 4H3041-bA
T10 chain: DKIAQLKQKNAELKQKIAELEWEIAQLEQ

P6bH1 = biological target: T11, P6bH1
T11 chain: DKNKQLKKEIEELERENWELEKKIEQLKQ

4H932-bA = biological target: T12, 4H932-bA
T12 chain: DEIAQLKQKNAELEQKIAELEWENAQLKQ

4H2859-bA = biological target: T13, 4H2859-bA
T13 chain: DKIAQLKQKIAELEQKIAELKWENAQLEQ

4H264-bA = biological target: T14, 4H264-bA
T14 chain: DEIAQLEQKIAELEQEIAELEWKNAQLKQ

4H2585-bA = biological target: T15, 4H2585-bA
T15 chain: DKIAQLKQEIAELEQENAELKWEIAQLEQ

4H349-bA = biological target: T16, 4H349-bA
T16 chain: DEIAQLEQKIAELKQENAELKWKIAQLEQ

4H3381-bA = biological target: T17, 4H3381-bA
T17 chain: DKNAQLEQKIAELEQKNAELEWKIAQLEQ

4H235-bA = biological target: T18, 4H235-bA
T18 chain: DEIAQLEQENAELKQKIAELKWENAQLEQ

4H2931-bA = biological target: T19, 4H2931-bA
T19 chain: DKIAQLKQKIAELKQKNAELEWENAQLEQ

4H2253-bA = biological target: T20, 4H2253-bA
T20 chain: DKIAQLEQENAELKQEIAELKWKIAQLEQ

P9A-bP = biological target: T21, P9A-bP
T21 chain: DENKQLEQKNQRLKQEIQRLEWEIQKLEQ

P8A-bP = biological target: T22, P8A-bP
T22 chain: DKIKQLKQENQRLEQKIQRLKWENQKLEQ

P7A-bP = biological target: T23, P7A-bP
T23 chain: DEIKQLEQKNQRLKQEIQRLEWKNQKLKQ

P5A-bP = biological target: T24, P5A-bP
T24 chain: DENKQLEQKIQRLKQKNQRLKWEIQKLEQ

P4A-bP = biological target: T25, P4A-bP
T25 chain: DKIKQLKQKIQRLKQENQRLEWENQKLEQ

P3A-bP = biological target: T26, P3A-bP
T26 chain: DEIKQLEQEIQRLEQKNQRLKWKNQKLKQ

P6A-bP = biological target: T27, P6A-bP
T27 chain: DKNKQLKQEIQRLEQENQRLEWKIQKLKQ

- interaction score (4H730-bA): -0.707
- interaction score (4H949-bA): -0.968
- interaction score (4H56-bA): -0.0723
- interaction score (4H3364-bA): -0.504
- interaction score (4H2760-bA): 0.778
- interaction score (4H2518-bA): 0.247
- interaction score (4H2444-bA): 0.026
- interaction score (4H796-bA): -1.65
- interaction score (4H3297-bA): 0.145
- interaction score (4H3041-bA): 0.651
- interaction score (P6bH1): -1.05
- interaction score (4H932-bA): -0.529
- interaction score (4H2859-bA): -0.839
- interaction score (4H264-bA): -0.996
- interaction score (4H2585-bA): -0.557
- interaction score (4H349-bA): -0.459
- interaction score (4H3381-bA): -0.743
- interaction score (4H235-bA): 0.641
- interaction score (4H2931-bA): -0.566
- interaction score (4H2253-bA): 1.28
Binder: DKIAQLEQENAELKQEIAELKWKIAQLEQ [4H2253-bA]

- interaction score (P9A-bP): -0.126
- interaction score (P8A-bP): -0.641
- interaction score (P7A-bP): -0.807
- interaction score (P5A-bP): -0.806
- interaction score (P4A-bP): 0.89
- interaction score (P3A-bP): -0.848
- interaction score (P6A-bP): -0.316
Binder: DEIKQLEQEIQRLEQKNQRLKWKNQKLKQ [P3A-bP]
